Experimental data published in patent publication US20190276499A1, “Protein VII Fragments and Methods of Use Thereof for the Treatment of Inflammatory Disorders” (priority 2016, published 2019).
Entries after “also recorded” stand apart in the source; their conditions may differ.

Legend:
HMGB2 = target: T1, HMGB2 (Homo sapiens, UniProt P26583); assay: Release assay of HMGB2 in THP-1 cells; type: cell-based; details: PMA-treated THP-1 cells, LPS plus nigericin
T1 construct: endogenous in cells; host or cells: THP-1 (PMA-differentiated)
T1 sequence (P26583 1-209): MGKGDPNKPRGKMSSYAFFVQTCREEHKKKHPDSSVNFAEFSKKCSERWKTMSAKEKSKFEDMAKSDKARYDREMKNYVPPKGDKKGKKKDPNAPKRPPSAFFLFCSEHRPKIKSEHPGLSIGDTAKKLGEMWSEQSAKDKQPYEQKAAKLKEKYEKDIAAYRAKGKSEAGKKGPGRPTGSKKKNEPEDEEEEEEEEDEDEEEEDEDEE
Method: (§1) THP-1 cells were seeded at a density of 2×10^5 cells per well in a 24-well plate, and stimulated into macrophage-like cells by addition of 10 ng/mL PMA for 48 hours. Cells were washed in PBS and transduced with recombinant adenovirus vectors expressing only GFP or protein VII-GFP such that >90% of cells were GFP positive. At 48 hours post transduction, cells were washed and 200 μL of serum free RPMI was added. To stimulate the inflammasome, LPS (Sigma-Aldrich L2880) with a final concentration of 0.5 μg/mL was added to wells and incubated for 2 hours, then nigericin (Sigma-Aldrich N7143) was added with a final concentration of 10 μM for 1 hour. Supernatants were collected and proteins precipitated overnight at 4° C. with a final concentration of 20% trichloroacetic acid (Sigma), washed with acetone, dried, and resuspended in 1×sample buffer with reducing agent (Invitrogen). For ELISA analysis, supernatants were harvested directly and HMGB1 content was detected by the manufacturer's instructions (Chondrex 6010). Cells were also harvested by the addition of 1×sample buffer with reducing agent (Invitrogen) and boiled. Supernatants and lysates were analyzed together by western blot.

nucleosomes = assay: Nucleosome in vitro binding and MNase digestion assays
Method: Gel shift and MNase digestion assays were carried out as described (Falk et al. (2015) Science 348:699-703; Hasson et al. (2013) Nat. Struct. Mol. Biol., 20:687-695; Sekulic et al. (2010) Nature 467:347-351). Briefly, nucleosomes were reconstituted by incubating purified recombinant histones with ‘601’ DNA of either 195 or 147 bp over a series of dialysis. Recombinant protein VII-His was then combined with nucleosomes at various molar ratios, incubated at room temperature for 15 minutes, and analyzed by native gel electrophoresis. Complexes were also digested with MNase (Affymetrix) by addition of 1 unit per μg of DNA for 147 bp nucleosome experiments and 0.1 unit per μg of DNA for 195 bp nucleosome experiments, incubated at 22° C. for varying amounts of time followed by the addition of EGTA and guanidine thiocyanate to stop the reaction. The DNA fragments were then purified using a MinElute PCR purification kit (Qiagen) and analyzed on an Agilent 2100 Bioanalyzer as described (Falk et al. (2015) Science 348:699-703).

[1] = system: HMGB1 domains (A box, B box, acidic tail); assay: Immunofluorescence of HMGB1-GFP domain constructs upon protein VII-HA expression; type: cell-based; details: A549 cells, 2 days after transfection
Method: Cells were grown on glass coverslips in 24-well plates and either infected or induced with doxycycline (0.2 μg/mL). Cells were harvested for immunofluorescence at the indicated time points, washed in phosphate-buffered saline (PBS), fixed in 4% paraformaldehyde for 15 minutes and post-fixed with 100% ice-cold methanol for 5 minutes. Coverslips were then blocked and stained as described (Lilley et al. (2011) PLoS Pathog., 7:e1002084) and mounted using ProLong Gold Antifade Reagent (Life Technologies). Immunofluorescence was visualized using a Zeiss LSM Confocal microscope and ZEN 2011 software. Images were processed using ImageJ and assembled with Adobe CS6. All scale bars show in the Figures are 10 μm unless otherwise stated.
FIG. 8A provides a schematic of the different GFP constructs expressing distinct HMGB1 domains. […] Immunofluorescence of the HMGB1-GFP constructs 2 days after transfection of A549s cells under control conditions or upon expression of Ad5 protein VII-HA is shown in FIG. 8B. […] Only full-length HMGB1 and the HMGB1 A box are relocalized upon expression of protein VII. […] Next we tested the immobilization of this construct in chromatin upon protein VII expression.

[2] = target: T2, HMGB1 full-length and domains (Homo sapiens, UniProt P09429); assay: In vitro GST pull down of recombinant GST-HMGB1 constructs with protein VII; type: binding
T2 construct: recombinant GST constructs encoding full-length HMGB1 or distinct HMGB1 domains
T2 sequence (P09429 1-215): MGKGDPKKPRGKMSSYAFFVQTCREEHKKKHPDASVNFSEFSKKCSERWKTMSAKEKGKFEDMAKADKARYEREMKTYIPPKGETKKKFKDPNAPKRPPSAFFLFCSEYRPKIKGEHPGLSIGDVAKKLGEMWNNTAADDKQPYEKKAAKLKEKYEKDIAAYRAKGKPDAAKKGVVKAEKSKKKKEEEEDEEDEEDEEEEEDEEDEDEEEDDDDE

[3] = system: HMGB1 full-length and domains; assay: as above; type: binding
HMGB1 [4] = target: T3, HMGB1 (Homo sapiens, UniProt P09429); assay: Release assay of HMGB1 in THP-1 cells; type: cell-based; design: endogenous in cells; details: PMA-treated THP-1 cells, LPS plus nigericin
T3 sequence (P09429 1-215): T2 sequence (P09429 1-215)
Method: as §1

HMGB1 [5] = target: T3, HMGB1; assay: Co-immunoprecipitation of HMGB1 with protein VII-HA in A549 cells; type: cell-based; design: endogenous in cells; host or cells: A549; details: A549 cells induced 4 days
Method: A549 cells were induced to express protein VII with doxycycline for four days as described above. Approximately 4×10^7 cells were harvested and pelleted for each immunoprecipitation reaction. Cell pellets were resuspended in 500 μl of IC wash buffer with protease inhibitors (20 mM HEPES pH 7.9, 110 mM KOAc, 2 mM MgCl2, 150 mM NaCl, 0.1% Tween-20, 0.1% Triton X) and incubated on ice for 10 minutes with intermittent vortexing to disrupt cells. Samples were then incubated on ice for 1 hour with 5 μl of benzonase (Millipore) added to each sample to digest DNA to ˜150 bp, which was confirmed by DNA isolation and agarose gel analysis. Samples were then sonicated in a Diagenode Bioruptre for 30 seconds on and 30 seconds off for five rounds at 4° C. and centrifuged at 14,000 g for 15 minutes at 4° C. Supernatants were then incubated rotating for 1 hour at 4° C. with 30 μl of HA-conjugated magnetic beads (Thermo Scientific) and washed three times for five minutes in IC buffer. Isolated proteins were eluted with 100 μl of 2 mg/ml HA peptide (Thermo Scientific) for 20 minutes rotating at 37° C. and separated on and SDS-PAGE gel. For protein separation by SDS-PAGE the NuPAGE IDE System was used (NuPAGE Novex 4-12% bis-tris 1.0 mm gels, Invitrogen, USA). Uninduced cells were used as a negative control. […]

B1: protein VII: mature protein VII of human adenovirus type 5 (SEQ ID NO:1), expressed in cells, mostly with C-terminal HA tag (protein)
chain: AKKRSDQHPVRVRGHYRAPWGAHKRGRTGRTTVDDAIDAVVEEARNYTPTPPPVSTVDAAIQTVVRGARRYAKMKRRRRRVARRHRRRPGTAAQRAAAALLNRARRTGRRAAMRAARRLAAGIVTVPPRSRRRAAAAAAAAISAMTQGRRGNVYWVRDSVSGLRVPVRTRPPRN
modifications: C-terminal HA tag; Human adenovirus 5
- HMGB2 in supernatants (HMGB2): reduced levels
- Protection from MNase digestion (nucleosomes; 147 bp nucleosome core particle): completely blocks digestion; also recorded: protects against MNase digestion
- Nucleosome mobility on native gel electrophoresis (nucleosomes; 195 bp nucleosomes): changed nucleosome mobility
- Point at which MNase digestion of nucleosomal DNA pauses (nucleosomes; 195 bp nucleosomes): 165 bp
- Relocalization of HMGB1 A box [1]: relocalizes
- Pull-down by full-length HMGB1 construct in vitro [2]: able to also pull-down protein VII
- Binding to HMGB1 acidic tail (C-terminus) in vitro [3]: binds
- HMGB1 in supernatants (HMGB1 [4]): reduced levels
- HMGB1 co-immunoprecipitation with protein VII (HMGB1 [5]): confirmed
